Test [1] addresses human glypican-3 (GPC3) (human) (UniProt P51654). The test can be described thus: cell-based or functional assay.
Test [2] has the same target. The test can be described thus: flow cytometry on CHO-S cells transfected with human GPC3. (A flow cytometer gives signals particle by particle.)
Test [3] has the same target. The test can be described thus: flow cytometry on JHH-7 cells (GPC3-high).
The target is the same in test [4]. The test can be described thus: flow cytometry on JHH-5 cells (GPC3-mid).
For test [5] the target is unchanged. The test can be described thus: flow cytometry on JHH-7 cells; v21995 in PBS (not incubated in plasma), day 0.
Test [6] addresses cynomolgus monkey glypican-3 (GPC3) (cynomolgus monkey). The test can be described thus: flow cytometry on CHO-S cells transfected with cynomolgus GPC3.
Test [7] concerns the target human GPC3 on cells (human) (UniProt P51654). The test can be described thus: flow cytometry, JHH-7 cells; negative control.

Some results are limits rather than exact numbers.

Usually Kd stands for the constant that tells how readily two partners part at equilibrium. As for palivizumab (anti-RSV antibody), v21995, in test [1], the JHH-5 Internalization (MFI) was 399 MFI. In test [1], the JHH-5 Internalization (MFI), Day 0 (in PBS) worked out at 506 MFI. Moreover, the JHH-7 Internalization (MFI) in test [1] worked out at 265 MFI. This substance also showed a JHH-7 Internalization (MFI), Day 0 (in PBS) in test [1] of 4 MFI. In addition, the Kd in test [2] is greater than 150 nM; in test [3], greater than 47 nM; in test [4] it was greater than 150 nM; in test [5], 37.7 nM; in test [6], greater than 150 nM. Besides, the Bmax (MFI) in test [5] was 309 MFI.

In test [7], v22277 (palivizumab) (antibody) had a Kd greater than 60 nM.

The record behind these values is US20250295799A1, “ANTIBODY-DRUG CONJUGATES TARGETING GLYPICAN-3 AND METHODS OF USE” (Zymeworks BC Inc., priority 2022, published 2025).
